Assay results: the DeepSol protein solubility set

test: soluble on expression in E. coli; label from the status in PepcDB or PDB records

Sequence	soluble on expression in E. coli
MSLVEIVNRPYAKAFEAFATARPEVLCLSADLTSSCEVDGFRDRHPEQFLTLGMAEQNMLSFAGGLAMQGFRPFIHTFSVFLYRRPYDQLINSIAYSNRKVRLMGFLPGITTPGGITHQAIEDIAVLRAVPNMTILETGDATEVETVLEVADSIDGPVYVRILRGEVPRLFSTPFEFNKLRTLSEGDDILVVSSGVCTEEALRATGPLAARGVGIHHLHASTLKPFDKDGLLRAARGKKGIVTLENHTIIGGLGSLVSEILAEEGLGIRLKRLGLNDTFAHGASKPYLMKKYGLDAGALVSAIEELVGKNLAIGEEELVEVRLDHVHSAQKAEALEGHHHHHH	not soluble
MAHHHHHHMMGISPEAVLLDFDWTASYVLATDRLSTAAMNRATARTVSMEGGADGADTKPRNSGGGMPLLQLAMDVARVAPPSEVASISPLVSPVSGVRLQLLATASSEMQGGGEGQPAERMLLPNDRLTMELDAESLDALIAALRTAVDGMDSLSGC	not soluble
SDNDLKLLALESETIRSVADLHNKRVGMIRASASEFYFDSLLLANNLKGIPIDKVYGTADQLYQQLFDKQLDAISIWEPWGYKIGVAAESKVTNLSLPGIYTLSFNLLTMKPTTEEEKQRSLAILKA	not soluble
MWEPSKRLKPVPILPELKEIGEQLQAQREQAMIEWAQTGYVKKLKARLVGRIIHGLGAGHIRETSLTIHPVYGLPYIPASSVKGLVRHWFIEAYCEGEEKQLNEHEIGREIFGTQGNKGIVQFHDIFLIESLQLTGDVLAVHMKEYYEGNRAATDDQKPVPVSFWTVMATEVDIYLTANRSAPQNDEETVRLLEAAALWTQQALTEWGIGSKTSSGYGRFAEVYDVTEMEFLPIVQKEQVRLEQQKKEREMLEQ	not soluble
NGKLFLVGTPIGNLKDITLRALETLQNCDVIAAEDTRQSLKLLNHFDIKKPLISYHKFNENNRSSELMDMVREGKKVALVTDAGMPGISDPGSVIVEKFIENNLEFEVIPG	soluble
SPGSAAKGSELSERIESFVETLKRGGGPRSSEEMARETLGLLRQIITDHRWSNAGELMELIRREGRRMTAAQPSETTVGNMVRRVLKIIREEYGRLHGRTDESDQQESLHKLLTSGGLNEDFSFHYAQLQSNIIEAINELLVELEGTMENIAAQALEHIHSNEVIMTIGFSRTVEAFLKEAARKRKFHVIVAECAPFCQGHEMAVNLSKAGIETTVMTDAAIFAVMSRVNKVIIGTKTILANGALRAVTGTHTLALAAKHHSTPLIVCAPMFKLSPQFPNEEDSFHKFVAPEEVLPFTEGDILEKVSVHCPVFDYVPPELITLFISNIGGNAPSYIYRLMSELYHPDDHVL	soluble
MRGSHHHHHHTDPALRARIGIDLGGTKTEVIALGDAGEQLYRHRLPTPRDDYRQTIETIATLVDMAEQATGQRGTVGMGIPGSISPYTGVVKNANSTWLNGQPFDKDLSARLQREVRLANDANCLAVSEAVDGAAAGAQTVFAVIIGTGCGAGVAFNGRAHIGGNGTAGEWGHNPLPWMDEDELRYREEVPCYCGKQGCIETFISGTGFAMDYRRLSGHALKGSEIIRLVEESDPVAELALRRYELRLAKSLAHVVNILDPDVIVLGGGMSNVDRLYQTVGQLIKQFVFGGECETPVRKAKHGDSSGVRGAAWLWPQEGLCGR	soluble
GMGILSGNPQDEPLHYGEVFSTWTYLSTNNGLINGYRSFINHTGDEDLKNLIDEAIQAMQDENHQLEELLRSNGVGLPPAPPDRPAARLDDIPVGARFNDPEISATISMDVAKGLVTCSQIIGQSIREDVALMFSQFHMAKVQFGGKMLKLNKNKGWLIPPPLHSDRPIKE	soluble
MGSDKIHHHHHHMKRVSVVILNWNGVDMLRKFIPSVMDNSVGEGIEICVADNASSDGSLEMLRSEFPVVRLIELDQNYGFAEGYNRALEQVDAEYVVLLNSDVEVTPHWLEPLLDYMDTHSGTVACQPKLLSWHNKEYFEYAGASGGFIDRYGYPFCRGRIFDVVEKDCGQYDTITEVMWVTGAALFIRLADYREVGGLDGHFFAHMEEIDLCWRLRSRGKKLVCIPQSVVYHVGGATLKKENPRKTFLNFRNNLLMLYKNLPDKELEHVLFIRGILDRVAALVFYLKKDRANARAVMQARREFEDIRYSFAASRIENMMKSTDEIIPERTHFSIVMKYYLLGKKHFSQLKLF	not soluble
DGSFQGSVFVAVDIGERKRTEQALRENEQHLKNILDSIHAGILVIDPQDHRIVDANTFALDMIGAPKGLVVDRICHNFVCSAVQGACPITDLLENMDNSERRLLRFDGTSIPILKSVVPVTYQGRKLLIESFID	not soluble
MNEYKKEIKISVRNLVEFVLRTGDIDSSFTGSSRAVEGTRLHKKIQKTQGKEYSPEVFLKTTVEFDDFFLTVEGRADGVINEDGCFIIDEIKTTTAPLELIDEFYNPLHWAQAKCYAYIHALNENLEKIKIRLTYCHLETEEIKYLVSEFDFAELSRFFEELVEKYYVWAKLACDWQVKRDCSIKVLEFPFEKYRKGQRKLAVAVYKTVTEGKKLYVKAPTGIGKTISTLFPAVKAIGEGHASKIFYLTAKTVTGGVAKEAFAKMRQKGLLFKTVTLTAKEKICFMEKAVCKPEKCEYAKGHFDRVNEAIMDILTNEDEIKREVIEEYAKAHRVCPFELALDLTIWADAVICDYNYVFDPRVYLKRFFSDAGGDYIFLVDEAHNLVDRAREMFSAQLSKKSFLELKKAMKEESPKISKTLQKLNTFMLGMKKLCGDNDYFVSKEEQSEIYLLLRRLIGECEEYLTDRAKNGIENEDLLQLYFDALMYVRIAEFYDDRYVTFVEKSDNDVRIKLFCIDPSHLLSEALKRGKAAVFFSATLLPLSYFKEVLGGGPDDYTMCLDSPFEVNNRCLMIADRISTRYQDRGKSCDEVVQCIKSIVCAKKGNYIAFFPSYQYMNMIYELFEKECGDIKLYVQSSSMTEKEREDFLERFKADPQETVLGFCVLGGIFSEGIDLRDDRLIGAIIVGVGLPQICIERDIIRDYYQNKNRLGFEYSYMYPGMNKVMQAAGRVIRSENDKGVILLIDDRFTNPSYLALFPNEWFPYIRVTGNNISEHVKKFWSRHGA	soluble
MGSDKIHHHHHHMSYRIVVDPKEVVKPISRHIYGHFTEHLGRCIYGGIYEEGSPLSDERGFRKDVLEAVKRIKVPNLRWPGGNFVSNYHWEDGIGPKDQRPVRFDLAWQQEETNRFGTDEFIEYCREIGAEPYISINMGTGTLDEALHWLEYCNGKGNTYYAQLRRKYGHPEPYNVKFWGIGNEMYGEWQVGHMTADEYARAAKEYTKWMKVFDPTIKAIAVGCDDPIWNLRVLQEAGDVIDFISYHFYTGSDDYYETVSTVYLLKERLIGVKKLIDMVDTARKRGVKIALDEWNVWYRVSDNKLEEPYDLKDGIFACGVLVLLQKMSDIVPLANLAQLVNALGAIHTEKDGLILTPVYKAFELIVNHSGEKLVKTHVESETYNIEGVMFINKMPFSVENAPFLDAAASISEDGKKLFIAVVNYRKEDALKVPIRVEGLGQKKATVYTLTGPDVNARNTMENPNVVDITSETITVDTEFEHTFKPFSCSVIEVELE	not soluble
MGSPLPFRLTCVWAGEPSMKKAIIFDCEFLCLEGSQRRFWCAAHDPDPVIAQIGAVKLGLEGGFPLLETYKVLISPVDRHGRRYAIDPFFTRLTGITEENIEAEGVPLQDALSSFDSFSEGAQCWSWGKDELNMMAISTYVAGIQPPMPACRFDNAVRLLLAAGMPVEDLAKTPSNSLADYYGVAHPPLQGHDALGDALSVSYALQHLLRSGKLKPEEFTLAAAAALEHHHHHH	not soluble
GPGSMIRRYSLAIGGSCCCPAPRLISTEAFVSSVEKVQHQLGTSERKQDLILHGRQLFENESLDDIHSAWTPVVAGKICHAATQLRISPTKGQPFGAVVGLSLTPEAVGVMDAPSLARIAHSCLILRSPHLYEVLFTYIRRLITLAATLDTVSCAVLINAYGRAQVHHEEFYKVICDRAAVVMKDPRTFVAHTANVAHALSRVRYFHRDLFLTLRDQAERQASQGPPLVAVTILDGFAEIGFVDDALFTALEQRLLGELAELPAPLMASLVSCLAKAGRAPSPLFTACGERIVAIGNTFDSNSIAKTCDAFYRANVPAEEVLGTLAERACKVVADFRPDEINQTLSSLASFDLFDGELFPLLASRFVSIVKQGGYVSPVDAAGILTSFAVVQERSDELVHVCTQLLSVHRDALDGITLLQTLWACVTLNVRNEAQQNLLQCLSSGAVVLPDEASAEKESKVVLERLLFVKKAYGLQ	not soluble
MGSDKIHHHHHHMNLLEVKSLKARFKRGGFALESVNLTLKKGECVSIVGESGSGKSFLAQLIVRLFPQGSVEVEEGEILFLGENLLDFSQERLEGVRGSEIGFVFQEPLISLNPLHTIEKQLAEAILLHRSLSREELKREIGALYASVGLEALKGRAKIYPHELSGGQRQRVMIAMALANSPKLLIADEPTTALDVSVQKQILDLLFRLKEERGVSLLLISHDLGVVRHYADKVYVMKGGKVVESASKEELFAHPKHPYTQALLSSLHLPLKESPPSRGEILLEAENLDLSFVLKKDWLGRPKEYLRALSSISLRLREGENLGIVGESGSGKSTLALALCKLLSFEGRLRMGHEEMAKMEESRFRPFRSMIQIVFQDPYGSLSPRLSIEEILREGLEVHFPAQKESFERRIIEALEGVGLESSYRYRYPNELSGGQRQRVAIARALILRPKILILDEPTSALDRSIEHQVVALLLELQKRYNLTYLCISHDLRVIGALSDRVAVMKGGRLIEEGETSLILQSPTHPYTQELIGSLLL	not soluble
MGSDKIHHHHHHMKTVTRYACQKCGYQSAKWLGKCPDCAAWNSFVEEVTGGGRKGAASLPAATRPVPICDVASEAETRLSCGISEFDRVLGGGLVSGSLVLIGGDPGIGKSTILLQVMDHLARTAGPVLYVSGEESARQTKMRGERLGIGARELLVLAETSLELILSQVTALAPRALVIDSIQTVFSANLESAPGSVSQVRECAGRLMELAKRNGIPTLLVGHVTKDGSLAGPRVLEHMVDTVLYFEGDPGHAFRILRAVKNRFGSTNEIGVFEMKEGGLSEVRNPSELFLAERPLGVSGSAVVTTIEGSRPLLVELQALVTPSSLGVPRRTTLGVDHNRLALLVAVLDKKVGLHLSGQDIFLNAAGGARLSEPAIDLGMVAALASSHLDKIIDPHTVIVGEVGLAGEVRAITQAETRVREAAKLGFTRAVIPAGSVRQVGDVPGMNVVGVKSLDEALEQLF	not soluble
MSLRTTESEKGLRMPGLPPMVAPPAEQVDDPVTATDAANAVDAVLRGVLDERLRHCRAVDPLFARELADRLAALTARGGKRLRTAFAHCGWRAAGGSGDATAVLRTGAALELLQACALVHDDVMDGSVQRRGAPALHVDLARGHWAAGMHGSSESFGTSAAVLTGDLALAWADDLLTETALGTPHGPRLHGEWRAMRTEMVAGQYRDLHAQAARSSGVDEALAIATLKSALYTVARPLALGAVLAGAADGDALEALRAAGRCAGLAFQLRDDLLGAFGDPALTGKPADDDLRSRKLTYLLAVAVRLADAADDHLAAAALAPDADPKSEKAVRQVRSALVRTGARDLVETKIGELTDMSLAHFDRCGARPAVRHEFAALIGRATGAVPRGTGEVVEGHHHHHH	soluble
MSLKIAIVNDMPMAVEALRRALAFDPSHEVVWVATNGAEAVKYCAELTPDLILMDLIMPVMDGVEATRRIMAESPCAIVIVTVDRQQNVHRVFEAMGHGALDVVDTPALGAGNAQEAAAPLLRKILNIGWLIGQRGSRVRSAPQPLRSGAPRQSLVAIGSSAGGPAALEVLLKGLPKDFAAAIVLVQHVDQVFAAGMAEWLSSASGLEVRLAREGEPPQSGKVLLAGTNHHIRLLKNGTLAYTAEPVNEIYRPSIDVFFESVASFWNGDAVGVLLTGMGRDGAQGLKLMRDQGYLTIAQDQNSSAVYGMPKAAAAIGAASEIRPLDKIAPRLLEIFAKEGHHHHHH	soluble
MSLSEAVERQTLTIANSKAWKPYSYLDEQGQPSGILIDFWLAFGEANHVDIEFQLMDWNDSLEAVKLGKSDVQAGLIRSASRLAYLDFAEPLLTIDTQLYVHRTLLGDKLDTLLSGAINVSLGVVKGGFEQEFMQREYPQLKLIEYANNELMMSAAKRRELDGFVADTQVANFYIVVSNGAKDFTPVKFLYSEELRPAVAKGNRDLLEQVEQGFAQLSSNEKNRILSRWVHIETIYPRYLMEGHHHHHH	soluble
